Key:
Experiment in all cases: co-expression in COS cells
FcERIγ = target: T1, FcERIγ (UniProt P30273 19-86)
T1 sequence (looked up): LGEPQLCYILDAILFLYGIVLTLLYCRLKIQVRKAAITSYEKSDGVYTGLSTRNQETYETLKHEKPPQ

DAP10 = target: T2, DAP10 (UniProt Q9UBK5 19-93)
T2 sequence (looked up): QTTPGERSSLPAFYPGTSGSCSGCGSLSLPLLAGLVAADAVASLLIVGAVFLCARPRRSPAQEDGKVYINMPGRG

DAP12 = DAP12 (UniProt O43914 22-113)
ζ = target: T3, ζ (UniProt P20963 22-164)
T3 construct: also called CD3ζ

Measured: binding result

T3 sequence (P20963 22-164 limits assumed): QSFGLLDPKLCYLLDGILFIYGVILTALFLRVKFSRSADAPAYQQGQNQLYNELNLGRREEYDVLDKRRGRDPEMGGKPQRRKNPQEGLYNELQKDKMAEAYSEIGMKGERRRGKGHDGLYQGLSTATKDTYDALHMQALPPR
Sequence of DAP12 (O43914 22-113 limits assumed): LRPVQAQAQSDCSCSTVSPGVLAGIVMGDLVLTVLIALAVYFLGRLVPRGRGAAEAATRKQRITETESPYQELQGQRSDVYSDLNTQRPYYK

B1: CD160-TM, Flag-tagged, expressed by transfected cells (receptor)
chain: GCINITSSASQEGTRLNLICTVWHKKEEAEGFVVFLCKDRSGDCSPETSLKQLRLKRDPGIDGVGEISSQLMFTISQVTPLHSGTYQCCARSQKSGIRLQGHFFSILFTETGNYTVTGLKQRQHLEFSHNEGTLSSGFLQEKVWVMLVTSLVALQGMSKRAVSTPSNEGAIIFLPPWLFSRRRRLERMSRGREKCYSSPGYPQESSNQFH
notes: Expressed in Jurkat cells from pEF6; Also used here for the co-expression in COS cells, where the construct is not described; also called CD160-TM transfectants; CD160-TM-transfected cells; not shown: Flag tag coded by the reverse oligonucleotide (C-terminal)
no binding: FcERIγ | DAP10 | DAP12 | ζ
